Results from IntAct's records for PubMed 21505417.

B1: Intraflagellar transport protein 25 (Chlamydomonas reinhardtii), B8LIX8 (parent)
chain: MKDYAREENGGLVVMASCSDERFPPENMLDGKDNTFWVTTGMFPQEFVLRLESCIRVSKITTLSLNVRKLAVEKCDQDKPDQFEKVFEVELANRGDRLQTEVHQVNIRAKYLKFILLQGHGEFATVNRVSVVGGDDDGGGYDEPGGGYGSMQRQPSMGYGGGGGSAATGFAADPGNAAAGGGGGFEDEF
partner: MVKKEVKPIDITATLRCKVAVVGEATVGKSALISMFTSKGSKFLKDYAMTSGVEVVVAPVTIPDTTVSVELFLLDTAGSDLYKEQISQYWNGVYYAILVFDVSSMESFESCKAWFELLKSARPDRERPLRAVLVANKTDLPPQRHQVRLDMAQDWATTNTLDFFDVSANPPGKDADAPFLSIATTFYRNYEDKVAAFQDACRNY

Variants of: B1
Conditions: with ift27_chlre IFT27, A8HN58

Question: Which “effect of a mutation on the interaction” value does the source give for MKDYAREENGGLVVMASCSDERFPPENMLDGKDNTFWRTTGMFPQEFVLRLESCIRVSKITTLSLNVRKLAVEKCDQDKPDQFEKVFEVELANRGDRLQTEVHQVNIRAKYLKFILLQGHGEFATVNRVSVVGGDDDGGGYDEPGGGYGSMQRQPSMGYGGGGGSAATGFAADPGNAAAGGGGGFEDEF here?
Answer: disrupting interaction

Question: With MKDYAREENGGLVVMASCSDERFPPENMLDGKDNTFWVTRGMFPQEFVLRLESCIRVSKITTLSLNVRKLAVEKCDQDKPDQFEKVFEVELANRGDRLQTEVHQVNIRAKYLKFILLQGHGEFATVNRVSVVGGDDDGGGYDEPGGGYGSMQRQPSMGYGGGGGSAATGFAADPGNAAAGGGGGFEDEF as the variant, how does the “effect of a mutation on the interaction” value read?
Answer: disrupting interaction

Question: MKDYAREENGGLVVMASCSDERFPPENMLDGKDNTFWVTTGMFPQEFVLRLESCIRVSKITTLSLNVRKLAVEKCDQDKPDQFEKVFEVELANRGDRLQTEVHQVNIRAKYLKFILLQGHGEFAEVNRVSVVGGDDDGGGYDEPGGGYGSMQRQPSMGYGGGGGSAATGFAADPGNAAAGGGGGFEDEF was tested. Which “effect of a mutation on the interaction” value did it give?
Answer: disrupting interaction
